Experimental data as given in patent US20250101126A1 (GO THERAPEUTICS, published 2025).
Changes are numbered by the printed parent chain. Each block holds one binder with its values, some of them ahead of it.

Key:
[1] = target: T1, MUC4-Tn glycopeptide CTIPSTAMHTRSTAAPIPILP (SEQ ID NO:154) with O-linked GalNAc on the serine and threonine … (not fully specified; O-linked GalNAc on Ser 12 and Thr 13; N-terminal biotin (Table 6); C-terminal amide in the form described in the SPR/BLI methods); test: BLI (Octet), apparent affinity; peptide on biosensor; +/- error at 95% confidence; same value as Table 7
T1 construct: Synthetic glycopeptide made by FMOC synthesis; also called MUC4 glycopeptide; Tn-glycosylated MUC4 peptide
T1 peptide: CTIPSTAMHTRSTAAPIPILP

[2] = target: T1, MUC4-Tn glycopeptide …; test: BLI (Octet), apparent affinity; peptide on biosensor; error +/- 0.251 nM at 95% confidence (r8c5)
MUC1-Tn [3] = test: BLI (Octet), apparent affinity; peptide on biosensor; error +/- 5.9 µM (r8c9)
[4] = target: T1, MUC4-Tn glycopeptide …; test: SPR (Biacore); antibody immobilized, peptide as analyte
Source text: Antibody affinity assays can be carried out using surface plasmon resonance (e.g., using a Biacore system (Cytiva)). In a surface plasmon resonance assay, one or more antibodies can be immobilized onto a biosensor and presented with an analyte (e.g., the glyco-MUC4 peptide […]-amide (the amino acid portion of which is SEQ ID NO:154; bold and underlined residues indicate GalNAc glycosylation sites) or a negative control analyte such as un unglycosylated MUC4 peptide ([…]-amide (the amino acid portion of which is SEQ ID NO:155)). The antibodies are contacted with different concentrations of the analyte, for example concentrations of 2.5 nM, 7.4 nM, 22 nM, 66 nM and 200 nM. Affinity is measured using multi-cycle kinetics in triplicate for each analyte concentration, with 1 min association and 5 min dissociation. […] The affinity is determined by fitting the binding curve to a specific model: kinetic fit (1:1 model) or if applicable heterogenous ligand binding model.

[5] = target: T2, Tn-glycosylated MUC4 on cells (MUC4-Tn; COSMC-KO cells, cancer tissue) (UniProt Q99102 29-5412, limits assumed, truncated Tn O-glycans (GalNAc-alpha1-O-Ser/Thr), from knock-out of the COSMC chaperone or in cancer tissue); test: flow cytometry on T3M4 COSMC-KO (T3M4-M) cells
T2 construct: whole, on cells; also called Tn-MUC4; glyco-MUC4
Experimental: Adherent cells were dissociated with TrypLE select (Gibco) and washed from flask surface with cell culture media (RPMI w/L-glutamine, 1% PenStrep, & 10% FBS). Cells were washed several times by centrifugation at 300*g for 5 min at 4° C. followed by resuspension in PBS with 1% BSA (PBS/1% BSA). Cells were resuspended between 5×10⁵ cells/ml to 2×10⁶ cell/ml and then distributed into a 96 well U-bottom plate. Diluted commercial antibody (0.25-2 ug/ml), or purified humanized 2D5 candidates were added to T3M4 COSMC-KO cells and incubated for 1 hr on ice. Following several washes with PBS/1% BSA, cells were incubated for 30 min on ice with a 1:1600 dilution of AlexaFluor647 conjugated F(ab)₂ goat anti-human IgG Fcγ (JacksonImmunoResearch). Cells were washed again with PBS/1% BSA and then fixed in 1% formaldehyde in PBS/1% BSA. Cells were analysed on either a 2 or 4 laser Attune NXT flow cytometer. Data was processed in FlowJo Software.

[6] = target: T1, MUC4-Tn glycopeptide …; test: BLI (Octet), MUC4 glycopeptide on biosensor
MUC1-Tn [7] = test: BLI (Octet), apparent affinity; peptide on biosensor; error +/- 7.6 µM (r10c9)
[8] = target: T3, MUC4-Tn(T) peptide Biotin-CTIPSTAMHTRSTAAPIPILP (SEQ ID NO:198) (GalNAc on a threonine only (by the label Tn(T); the bold/underline marking of the site is lost in the text); N-terminal biotin); test: BLI (Octet), apparent affinity; peptide on biosensor; error printed as 1 pM (r10c7)
T3 construct: Singly glycosylated form of the MUC4 peptide
T3 peptide: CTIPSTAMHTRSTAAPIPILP

[9] = target: T1, MUC4-Tn glycopeptide …; test: BLI (Octet), apparent affinity; peptide on biosensor; error +/- 2.32 nM (r10c5)
[10] = target: T1, MUC4-Tn glycopeptide …; test: BLI (Octet), apparent affinity; peptide on biosensor; error +/- 10 nM (r12c5)
MUC1-Tn [11] = test: BLI (Octet), apparent affinity; peptide on biosensor; error +/- 3.7 µM (r12c9)
[12] = target: T3, MUC4-Tn(T) peptide …; test: BLI (Octet), apparent affinity; peptide on biosensor; error +/- 66 µM (r12c7)

B1: 2D5.2F6.2C11 (antibody, V domains shown)
VH: QVQLQQSDAELVKPGASVRISCKAYGYTFTDHAIHWVKQKPEQGLEWLGYISPGNDDIQYNAKFKGKATLTADKSSSTAYMQLNSLTSDDSAVYFCKRSMANSFDYWGQGTTLTVSS
VL: NIMLTQSPSSLAVSAGEKVTMSCKSSQSVLYSSDQKNYLAWYQQKPGQSPKLLIYWASTRESGVPDRFTGSGSGTDFTLTISNVQAEDLAVYYCHQYLSSYTFGGGTKLEIK
notes: Murine monoclonal antibody from a hybridoma (Balb/c mice immunized with the KLH-conjugated Tn-MUC4 glycopeptide); also called mAb 2D5
Kd [1]: 2 nM
Kd [2]: 2 nM
Kd (MUC1-Tn [3]): 2900 nM
Kd [4]: 3.96 nM

B2: 2D5-cAb Chimeric antibody (human Fc domain + murine variable domain) (antibody, V domains shown)
VH: B1 VH
VL: B1 VL
EC50 [5]: 0.0177 µg/mL
Kd [6]: 3.2 nM

Results, then the binder that gave them:

Kd (MUC1-Tn [7]): 2800 nM
Kd [8]: 560 nM
Kd [9]: 2.32 nM
Kd [4]: 3.93 nM
B3: 5B8.2A11.2C7 (antibody, V domains shown)
VH: QVQLQQSDAELVKPGASVKISCKASGYTFTDHAIHWVKQKPEQGLEWIGYFSPGNGDIKYNEKFKGKATLTADRSSSTANMHLNSLTSEDSAVYFCKRSMANYFDYWGQGTTLTVSS
VL: B1 VL with L4M, A12V, Q27H, D34N, R60K, E61N, N83S
notes: Murine monoclonal antibody from a hybridoma; also called mAb 5B8

Kd [10]: 50.2 nM
Kd [4]: 3.56 nM
Kd (MUC1-Tn [11]): 2500 nM
Kd [12]: 79000 nM
B4: 15F3.2D11.1E6 (antibody, V domains shown)
VH: B1 VH with K13E, R19K, K67R, Y106F
VL: B1 VL with Q85R
notes: Murine monoclonal antibody from a hybridoma; also called mAb 15F3
